# Experimental data: patent publication US20260167699A1 (Chugai, published 2026)
# Where a chain is given by its changes, count along the chain named. Numbers in names are those of the source.
# T1: FcγRIIa(R) (human, UniProt P12318 34-217)
# T1 construct: extracellular domain; also called 2aR
# T1 sequence: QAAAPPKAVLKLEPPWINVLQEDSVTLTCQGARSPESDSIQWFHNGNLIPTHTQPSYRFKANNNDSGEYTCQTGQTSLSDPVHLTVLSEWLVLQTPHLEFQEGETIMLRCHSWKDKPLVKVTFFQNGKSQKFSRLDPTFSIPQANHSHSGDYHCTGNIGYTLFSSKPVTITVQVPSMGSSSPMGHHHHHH
# T2: FcγRIIa(H) (human, UniProt P12318 34-217)
# T2 construct: extracellular domain; also called 2aH
# T2 sequence: T1 sequence with R134H
# T3: FcγRIIb (human, UniProt P31994 43-217)
# T3 construct: extracellular domain; also called 2b
# T3 sequence: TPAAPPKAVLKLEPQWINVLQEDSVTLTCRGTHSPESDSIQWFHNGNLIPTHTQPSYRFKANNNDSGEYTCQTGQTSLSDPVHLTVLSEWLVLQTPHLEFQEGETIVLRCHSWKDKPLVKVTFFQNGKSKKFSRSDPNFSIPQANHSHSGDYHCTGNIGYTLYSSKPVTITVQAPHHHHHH
# T4: FcγRIIa(R) (human, UniProt P12318 34-217)
# T4 construct: extracellular domain; allotype R131; also called 2aR
# T4 sequence: T1 sequence
# T5: FcγRIIa(H) (human, UniProt P12318 34-217)
# T5 construct: extracellular domain; allotype H131; also called 2aH
# T5 sequence: T1 sequence with R134H
# T6: FcγRIIb (human, UniProt P31994 43-217)
# T6 construct: extracellular domain; also called 2b
# T6 sequence: T3 sequence
# B1: H240-Kn061/H240-Hl134/L73-k0 (antibody, human IgG1, kappa)
# heavy 1: QDQLVQSGAEVKKPGASVKVSCKASGFNIKDTYIQWVRQAPGQGLEWMGRIDPLRKQTKYREKFEGRVTITADTSTNTAYMELSSLRSEDTAVYYCVRSGREFDYWGQGTLVTVSSASTKGPSVFPLAPSSKSTSGGTAALGCLVKDYFPEPVTVSWNSGALTSGVHTFPAVLQSSGLYSLSSVVTVPSSSLGTQTYICNVNHKPSNTKVDKKVEPKSCDKTHTCPPCPAPEYYWGPSVFLFPPKPKDTLMISRTPEVTCVVVDVSDEDPEVKFNWYVDGVEVHNAKTKPREEQYNATYRVVSVLTVLHQDWLNGKEYKCKVSNKALPAPIEKTISKAKGQPREPQVCTLPPSRDELTKNQVSLWCLVKGFYPSDIAVEWESNGQPENNYKTTPPVLDSDGSFFLYSKLTVDKSRWQQGNVFSCSVMHEALHNHYTQKSLSLSP
# heavy 2: B1 heavy 1 with C348Y, D355C, W365S, L367A, Y406V
# light: DIQMTQSPSSLSASVGDRVTITCRASQDIHKYIAWYQQKPGQAPRLLIQYTSTLQPGVPSRFSGSGSGTDYTFTISSLQPEDIATYYCLQYEQLRTFGGGTKVEIKRTVAAPSVFIFPPSDEQLKSGTASVVCLLNNFYPREAKVQWKVDNALQSGNSQESVTEQDSKDSTYSLSSTLTLSKADYEKHKVYACEVTHQGLSSPVTKSFNRGEC
# notes: anti-epiregulin IgG1 called homodimerized: L234Y/L235Y/G236W/H268D/S298A in both H chains; also called H240-Kn061/H240-HI134/L73-k0
# B2: GpH7-G1d/GpL16-k0 (antibody, human IgG1, kappa)
# heavy: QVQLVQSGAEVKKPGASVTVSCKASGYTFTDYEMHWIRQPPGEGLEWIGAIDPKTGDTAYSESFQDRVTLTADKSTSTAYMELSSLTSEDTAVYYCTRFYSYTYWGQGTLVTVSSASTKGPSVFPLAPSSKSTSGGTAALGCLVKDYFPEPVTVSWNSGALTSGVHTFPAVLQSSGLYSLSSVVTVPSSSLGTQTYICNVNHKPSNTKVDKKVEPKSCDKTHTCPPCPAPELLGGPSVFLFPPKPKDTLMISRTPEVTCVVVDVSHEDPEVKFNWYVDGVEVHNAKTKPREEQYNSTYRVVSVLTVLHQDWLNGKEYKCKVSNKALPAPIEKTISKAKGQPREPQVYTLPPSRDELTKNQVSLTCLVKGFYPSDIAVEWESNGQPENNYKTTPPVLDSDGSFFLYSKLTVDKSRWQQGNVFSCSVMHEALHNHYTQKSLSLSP
# light: DIVMTQSPLSLPVTPGEPASISCQASESLVHSNRNTYLHWYLQKPGQSPQLLIYKVSNRFSGVPDRFSGSGSGTDFTLKISRVEAEDVGVYYCSQNTHVPPTFGQGTKVEIERTVAAPSVFIFPPSDEQLKSGTASVVCLLNNFYPREAKVQWKVDNALQSGNSQESVTEQDSKDSTYSLSSTLTLSKADYEKHKVYACEVTHQGLSSPVTKSFNRGEC
# notes: anti-glypican 3 IgG1, C-terminal Gly and Lys of the H chain deleted; also called naturally occurring IgG1
# B3: GpH7-A5/GpH7-B3 variant S337_07I/GpL16-k0 (antibody, human IgG1, kappa)
# heavy 1: not shown
# heavy 2: not shown
# light: B2 light
# notes: heterodimerized anti-glypican 3 IgG1, only the GpH7-B3 chain mutated; also called He Ab
# B4: GpH7-A5/GpH7-B3 variant S337_08L/GpL16-k0 (antibody, human IgG1, kappa)
# heavy 1: not shown
# heavy 2: not shown
# light: B2 light
# notes: as for B3
# B5: GpH7-A5/GpH7-B3 variant S337_11K/GpL16-k0 (antibody, human IgG1, kappa)
# heavy 1: not shown
# heavy 2: not shown
# light: B2 light
# notes: as for B3
# B6: GpH7-A5/GpH7-B3 variant S337_14T/GpL16-k0 (antibody, human IgG1, kappa)
# heavy 1: not shown
# heavy 2: not shown
# light: B2 light
# notes: as for B3
# B7: GpH7-A5/GpH7-B3 variant S337_15Y/GpL16-k0 (antibody, human IgG1, kappa)
# heavy 1: not shown
# heavy 2: not shown
# light: B2 light
# notes: as for B3
# B8: GpH7-A5/GpH7-B3 variant S337_16H/GpL16-k0 (antibody, human IgG1, kappa)
# heavy 1: not shown
# heavy 2: not shown
# light: B2 light
# notes: as for B3
# B9: GpH7-A5/GpH7-B3 variant S337_19Q/GpL16-k0 (antibody, human IgG1, kappa)
# heavy 1: not shown
# heavy 2: not shown
# light: B2 light
# notes: as for B3
# B10: GpH7-A5/GpH7-B3 variant S337_20W/GpL16-k0 (antibody, human IgG1, kappa)
# heavy 1: not shown
# heavy 2: not shown
# light: B2 light
# notes: as for B3
# B11: GpH7-A5/GpH7-B3 variant S337_16H/GpL16-k0 (antibody, human IgG1, kappa)
# heavy 1: not shown
# heavy 2: not shown
# light: B2 light
# notes: Heterodimerized anti-glypican 3 IgG1 antibody with the mutation in only one H chain (GpH7-B3 side); also called He Ab
# B12: GpH7-A5/GpH7-B3 variant S337_19Q/GpL16-k0 (antibody, human IgG1, kappa)
# heavy 1: not shown
# heavy 2: not shown
# light: B2 light
# notes: as for B11
# B13: GpH7-A5/GpH7-B3 variant S337_20W/GpL16-k0 (antibody, human IgG1, kappa)
# heavy 1: not shown
# heavy 2: not shown
# light: B2 light
# notes: as for B11
# B14: GpH7-A5/GpH7-B3 variant S337_07I/GpL16-k0 (antibody, human IgG1, kappa)
# heavy 1: not shown
# heavy 2: not shown
# light: B2 light
# notes: heterodimerized anti-glypican 3 IgG1; mutation in one H chain only; also called He Ab
# B15: GpH7-A5/GpH7-B3 variant S337_08L/GpL16-k0 (antibody, human IgG1, kappa)
# heavy 1: not shown
# heavy 2: not shown
# light: B2 light
# notes: as for B14
# B16: GpH7-A5/GpH7-B3 variant S337_11K/GpL16-k0 (antibody, human IgG1, kappa)
# heavy 1: not shown
# heavy 2: not shown
# light: B2 light
# notes: as for B14
# B17: GpH7-A5/GpH7-B3 variant S337_14T/GpL16-k0 (antibody, human IgG1, kappa)
# heavy 1: not shown
# heavy 2: not shown
# light: B2 light
# notes: as for B14
# B18: GpH7-A5/GpH7-B3 variant S337_15Y/GpL16-k0 (antibody, human IgG1, kappa)
# heavy 1: not shown
# heavy 2: not shown
# light: B2 light
# notes: as for B14
# B19: GpH7-A5/GpH7-B3 variant S337_16H/GpL16-k0 (antibody, human IgG1, kappa)
# heavy 1: not shown
# heavy 2: not shown
# light: B2 light
# notes: as for B14
# B20: GpH7-A5/GpH7-B3 variant S337_19Q/GpL16-k0 (antibody, human IgG1, kappa)
# heavy 1: not shown
# heavy 2: not shown
# light: B2 light
# notes: as for B14
# B21: GpH7-A5/GpH7-B3 variant S337_20W/GpL16-k0 (antibody, human IgG1, kappa)
# heavy 1: not shown
# heavy 2: not shown
# light: B2 light
# notes: as for B14
# Molecular target: T7, FcγRIIIa(F) extracellular domain with C-terminal His tag (human, UniProt P08637 17-208)
# T7 construct: extracellular domain; polymorphic form F158; also called FcγRIIIa F type
# T7 sequence (P08637 other isoform, or with tags, fused parts or gaps): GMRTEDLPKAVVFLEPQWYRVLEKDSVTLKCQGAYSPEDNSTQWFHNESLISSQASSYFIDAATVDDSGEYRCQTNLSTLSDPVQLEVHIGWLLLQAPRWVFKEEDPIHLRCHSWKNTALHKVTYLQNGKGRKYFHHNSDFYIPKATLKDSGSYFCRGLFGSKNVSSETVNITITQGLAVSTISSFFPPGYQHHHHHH
# Assay: SPR (Biacore), captured antibody, FcγR analyte, 1:1 Langmuir fit;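 note: surface plasmon resonance at 25 °C in HBS-EP+ running buffer, antibody captured on sensor chip, FcγR flowed over as analyte in the same buffer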
# Protocol: (§1) The antibody of interest was analyzed for its interaction with FcγR using a BiaCore™ T100, BiaCore™ A100, or BiaCore™ 4000 surface plasmon resonance system (GE Healthcare Japan Corp.). The running buffer used was HBS-EP+ (GE Healthcare Japan Corp.). The assay temperature was set to 25° C. The sensor chips used were: a chip prepared by immobilizing antigenic peptides onto Series S Sensor Chip CM5 (GE Healthcare Japan Corp.) by the amine coupling method; a chip prepared by immobilizing antigenic peptides biotinylated in advance onto Series S Sensor Chip SA (certified) (GE Healthcare Japan Corp.) through their interaction; a chip prepared by immobilizing protein L (ACTIGEN, BioVision, Inc.) onto Series S Sensor Chip CM5 (GE Healthcare Japan Corp.); and a chip prepared by immobilizing protein A/G (Thermo Fisher Scientific K.K.) onto Series S Sensor Chip CM5 (GE Healthcare Japan Corp.). The antibody of interest was captured onto any of these chips and allowed to interact with FcγR diluted with a running buffer. The antibody captured on the chip was washed off through the reaction of 10 mM glycine-HCl (pH 1.5) to regenerate the chip, which was repetitively used.
row,Binder,Kd [nM]
1,B1,660

# Molecular target: T8, FcγRIIIa(V) extracellular domain with C-terminal His tag (human, UniProt P08637 17-208)
# T8 construct: extracellular domain; polymorphic form V158; also called FcγRIIIa V type
# T8 sequence (P08637 other isoform, or with tags, fused parts or gaps): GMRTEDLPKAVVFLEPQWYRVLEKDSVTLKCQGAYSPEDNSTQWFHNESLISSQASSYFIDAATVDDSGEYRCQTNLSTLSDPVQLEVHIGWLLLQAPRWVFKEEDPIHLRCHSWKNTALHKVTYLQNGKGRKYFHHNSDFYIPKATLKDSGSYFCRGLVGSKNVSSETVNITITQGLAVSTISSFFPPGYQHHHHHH
# Assay: as above
# Protocol: as §1
row,Binder,Kd [nM]
1,B1,86

# Molecular target: T9, FcγRIIIa extracellular domain with C-terminal His tag (allotype not given) (human, UniProt P08637 17-208)
# T9 construct: extracellular domain; also called 3a
# Assay: SPR (Biacore), captured antibody, FcγRIIIa analyte, 1:1 Langmuir fit
row,Binder,Kd [nM]
1,B2,1200

# Molecular target: T9, FcγRIIIa extracellular domain with …
# Assay: SPR; KD of GpH7-G1d/GpL16-k0 for FcγRIIIa divided by KD of this antibody
# Protocol: as §1
row,Binder,KD ratio1 [fold]
1,B2,1

# Molecular target: T10, FcγRIa (human, UniProt P12314 16-292)
# T10 construct: extracellular domain; also called 1a
# Assay: SPR (Biacore); He Ab binding / HeCon Ab (GpH7-A5/GpH7-B3/GpL16-k0) binding x100;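 note: antibody captured on the sensor chip, soluble FcγR flowed over it in HBS-EP+ running buffer, 25 °C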
# T10 sequence (P12314 other isoform, or with tags, fused parts or gaps): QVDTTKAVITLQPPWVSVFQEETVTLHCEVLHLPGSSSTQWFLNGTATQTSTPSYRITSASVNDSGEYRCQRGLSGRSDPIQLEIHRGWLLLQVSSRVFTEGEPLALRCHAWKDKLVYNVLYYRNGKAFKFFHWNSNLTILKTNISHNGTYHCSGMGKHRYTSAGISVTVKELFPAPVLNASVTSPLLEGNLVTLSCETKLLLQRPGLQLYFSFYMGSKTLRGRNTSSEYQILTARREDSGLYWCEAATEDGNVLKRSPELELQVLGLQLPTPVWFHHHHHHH
# Protocol: as §1
row,Binder,He/Con 1a [%]
1,B3,102
2,B4,102
3,B5,101
4,B6,102
5,B7,101
6,B8,101
7,B9,101
8,B10,102

# Molecular target: T1, FcγRIIa(R)
# Assay: as above
# Protocol: as §1
row,Binder,He/Con 2aR [%]
1,B3,111
2,B4,109
3,B5,105
4,B6,112
5,B7,107
6,B8,111
7,B9,108
8,B10,112

# Molecular target: T2, FcγRIIa(H)
# Assay: as above
# Protocol: as §1
row,Binder,He/Con 2aH [%]
1,B3,107
2,B4,106
3,B5,102
4,B6,110
5,B7,106
6,B8,108
7,B9,104
8,B10,108

# Molecular target: T3, FcγRIIb
# Assay: as above
# Protocol: as §1
row,Binder,He/Con 2b [%]
1,B3,113
2,B4,109
3,B5,103
4,B6,114
5,B7,109
6,B8,114
7,B9,109
8,B10,119

# Molecular target: T11, FcγRIa (human, UniProt P12314 16-292)
# T11 construct: extracellular domain; also called 1a
# Assay: SPR (Biacore), antibody captured on chip, FcγR as analyte; relative to GpH7-A5/GpH7-B3/GpL16-k0 = 100
# T11 sequence (P12314 other isoform, or with tags, fused parts or gaps): as above
row,Binder,He/Con 1a (binding activity relative to GpH7-A5/GpH7-B3/GpL16-k0 x 100)
1,B11,101 % of control
2,B12,101 % of control
3,B13,102 % of control

# Molecular target: T4, FcγRIIa(R)
# Assay: as above
row,Binder,He/Con 2aR (binding activity relative to GpH7-A5/GpH7-B3/GpL16-k0 x 100)
1,B11,111 % of control
2,B12,108 % of control
3,B13,112 % of control

# Molecular target: T5, FcγRIIa(H)
# Assay: as above
row,Binder,He/Con 2aH (binding activity relative to GpH7-A5/GpH7-B3/GpL16-k0 x 100)
1,B11,108 % of control
2,B12,104 % of control
3,B13,108 % of control

# Molecular target: T6, FcγRIIb
# Assay: as above
row,Binder,He/Con 2b (binding activity relative to GpH7-A5/GpH7-B3/GpL16-k0 x 100)
1,B11,114 % of control
2,B12,109 % of control
3,B13,119 % of control

# Molecular target: T12, FcγRIIIa (human, UniProt P08637 17-208)
# T12 construct: extracellular domain; also called 3a
# Assay: as above
row,Binder,He/Con 3a (binding activity relative to GpH7-A5/GpH7-B3/GpL16-k0 x 100)
1,B11,100 % of control
2,B12,91.2 % of control
3,B13,93.8 % of control

# Molecular target: T9, FcγRIIIa extracellular domain with …
# Assay: SPR (Biacore), captured antibody, FcγRIIIa analyte; binding relative to GpH7-A5/GpH7-B3/GpL16-k0 = 100
row,Binder,He/Con 3a [%]
1,B14,88.3
2,B15,90.2
3,B16,80.1
4,B17,94
5,B18,94.9
6,B19,100
7,B20,91.2
8,B21,93.8
